In article PMC5700975:

B1: GST-Rab5 wild-type [canine] / Myc3-iSH2-p110β (wild type) [bovine | human] (parent)
chain 1: LYEDYTRTSQEIQMKRTAIEAFNETIKIFEEQCQTQERYSKEYIEKFKREGNETEIQRIMHNYEKLKSRISEIVDSRRRLEEDLKKQAAEYREIDKRMNSIKGGGGGGGMCFSFIMPPAMADILDIWAVDSQIASDGSIPVDFLLPTGIYIQLEVPREATISYIKQMLWKQVHNYPMFNLLMDIDSYMFACVNQTAVYEELEDETRRLCDVRPFLPVLKLVTRSCDPGEKLDSKIGVLIGKGLHEFDSLKDPEVNEFRRKMRKFSEEKILSLVGLSWMDWLKQTYPPEHEPSIPENLEDKLYGGKLIVAVHFENCQDVFSFQVSPNMNPIKVNELAIQKRLTIHGKEDEVSPYDYVLQVSGRVEYVFGDHPLIQFQYIRNCVMNRALPHFILVECCKIKKMYEQEMIAIEAAINRNSSNLPLPLPPKKTRIISHVWENNNPFQIVLVKGNKLNTEETVKVHVRAGLFHGTELLCKTIVSSEVSGKNDHIWNEPLEFDINICDLPRMARLCFAVYAVLDKVKTKKSTKTINPSKYQTIRKAGKVHYPVAWVNTMVFDFKGQLRTGDIILHSWSSFPDELEEMLNPMGTVQTNPYTENATALHVKFPENKKQPYYYPPFDKIIEKAAEIASSDSANVSSRGGKKFLPVLKEILDRDPLSQLCENEMDLIWTLRQDCREIFPQSLPKLLLSIKWNKLEDVAQLQALLQIWPKLPPREALELLDFNYPDQYVREYAVGCLRQMSDEELSQYLLQLVQVLKYEPFLDCALSRFLLERALGNRRIGQFLFWHLRSEVHIPAVSVQFGVILEAYCRGSVGHMKVLSKQVEALNKLKTLNSLIKLNAVKLNRAKGKEAMHTCLKQSAYREALSDLQSPLNPCVILSELYVEKCKYMDSKMKPLWLVYNNKVFGEDSVGVIFKNGDDLRQDMLTLQMLRLMDLLWKEAGLDLRMLPYGCLATGDRSGLIEVVSTSETIADIQLNSSNVAAAAAFNKDALLNWLKEYNSGDDLDRAIEEFTLSCAGYCVASYVLGIGDRHSDNIMVKKTGQLFHIDFGHILGNFKSKFGIKRERVPFILTYDFIHVIQQGKTGNTEKFGRFRQCCEDAYLILRRHGNLFITLFALMLTAGLPELTSVKDIQYLKDSLALGKSEEEALKQFKQKFDEALRESWTTKVNWMAHTVRKDYRS
chain 2: ANRGATRPNGPNTGNKICQFKLVLLGESAVGKSSLVLRFVKGQFHEFQESTIGAAFLTQTVCLDDTTVKFEIWDTAGQERYHSLAPMYYRGAQAAIVVYDITNEESFARAKNWVKELQRQASPNIVIALSGNKADLANKRAVDFQEAQSYADDNSLLFMETSAKTSMNVNEIFMAIAKKLPKNEPQNPGANSARGRGVDLTEPTQPTRSQCCSN

Variants of: B1
Assay: GST pull-down (summary table)
Conditions: with Myc3-iSH2-p110β (wild type) [bovine | human]; n=4; parent: 100

Variant	percent of parent [% binding]
chain 2 R90E	< 25
chain 2 I52A	< 25

Same assay, conditions: with Myc3-iSH2-p110β (wild type) [bovine | human]; n=7; parent: 100

Variant	percent of parent [% binding]
chain 2 Q78L	< 25
chain 2 Y88A	< 25

Variants of: B1
Assay: GST pull-down, anti-Myc immunoblot quantification
Conditions: with Myc3-iSH2-p110β (wild type) [bovine | human]; GST-Rab5 fusion proteins (10 µg) on glutathione Sepharose beads, GppCp-loaded; Myc-iSH2-p110β from transfected COS-1 lysates; parent: 100; read off a plot

Variant	percent of parent [% WT]
chain 2 Q78L	20

Variants of: B1
Assay: GST pull-down (summary table)
Conditions: with Myc3-iSH2-p110β (wild type) [bovine | human]; n=9; parent: 100

Variant	percent of parent [% binding]
chain 2 E79R	< 25
chain 2 H82E	< 25

Same assay, conditions: with Myc3-iSH2-p110β (wild type) [bovine | human]; n=6; parent: 100

Variant	percent of parent [% binding]
chain 2 Y81A	< 25

Same assay, conditions: with Myc3-iSH2-p110β (wild type) [bovine | human]; n=5; parent: 100

Variant	percent of parent [% binding]
chain 2 M87A	< 25
chain 2 W73A	< 25
chain 2 F56A	< 25

Same assay, conditions: with Myc3-iSH2-p110β (wild type) [bovine | human]; n=10; parent: 100

Variant	percent of parent [% binding]
chain 2 L84A	< 25

Same assay, conditions: with Myc3-iSH2-p110β (wild type) [bovine | human]; n=8; parent: 100

Variant	percent of parent [% binding]
chain 2 R80E	< 25
